Assay results: patent US20130287781A1 (GlaxoSmithKline, published 2013)

Key:
GST-human NOGO-A56 [1] = biological target: T1, GST-human NOGO-A56 (human); experiment: direct ELISA on NOGO (GST-human NOGO-A56), CDR H3 variant of H6FL with L13FL, Abs490; coating concentration not given
T1 construct: Expressed in E. coli BL21 from pGEX-6P1 and purified on glutathione-sepharose; the GST tag is part of the protein in the assays; also called GST-Nogo-A 5+6; GST Nogo-A 5 + 6

GST-human NOGO-A56 [2] = biological target: T1, GST-human NOGO-A56; experiment: SPR (Biacore) off-rate on NOGO chip, panel of H6FL CDR H3 variants with L13FL
[3] = biological target: T2, peptide 6 (biotin-SGSG-TPSPVLPDIVMEAPLN) (human, N-terminal biotin); experiment: peptide ELISA: biotinylated 16-mer peptide on streptavidin, antibody at 5 ug/ml, kappa-chain peroxidase conjugate, Abs490
T2 peptide: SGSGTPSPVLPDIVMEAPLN
Description: (§1) Streptavidin at 5 μg/ml in sterile water was coated onto Nunc immunosorp plates (100 μl per well) at 37° C. overnight. The plates were rinsed 3 times with PBS containing 0.05% Tween (PBST) then blocked with 3% BSA in PBST at 4° C. overnight. The plates were washed 3 times with PBST. Peptides were then added to the wells at a concentration of approximately 10 μg/ml (diluted in 3% BSA in PBST) and incubated at room temperature for 1 hour. The plates were washed 3 times with PBST then incubated for 1 hour with anti-NOGO antibodies diluted to 5 μg/ml in 3% BSA in PBST. […] The plates were washed 3 times with PBST and then incubated with 100 μl OPD peroxidase substrate (Sigma) per well for 10 minutes. The colour reaction was stopped by the addition of 50 μl 3 molar H₂SO₄. Absorbance at 490 nm was measured using a plate reader.

[4] = biological target: T3, peptide 7 (biotin-SGSG-VLPDIVMEAPLNSAVP) (human, N-terminal biotin); experiment: as above
T3 peptide: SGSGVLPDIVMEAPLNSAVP
Description: as §1

T1 sequence (chain, as listed by the source limits assumed): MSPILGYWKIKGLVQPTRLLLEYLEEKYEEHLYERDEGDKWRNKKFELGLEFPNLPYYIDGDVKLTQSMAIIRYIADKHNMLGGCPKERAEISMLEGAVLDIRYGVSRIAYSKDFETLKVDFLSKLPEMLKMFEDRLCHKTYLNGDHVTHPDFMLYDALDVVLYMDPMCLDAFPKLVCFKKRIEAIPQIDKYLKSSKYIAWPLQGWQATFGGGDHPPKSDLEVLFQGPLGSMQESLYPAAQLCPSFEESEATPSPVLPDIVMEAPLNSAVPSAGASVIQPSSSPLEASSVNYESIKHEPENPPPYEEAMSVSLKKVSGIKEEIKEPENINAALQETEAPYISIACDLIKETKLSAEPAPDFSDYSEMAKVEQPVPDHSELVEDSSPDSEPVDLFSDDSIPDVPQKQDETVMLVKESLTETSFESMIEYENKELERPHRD

B1: H6L13 variant with VH CDR3 WQGY (antibody, human IgG1, kappa, V domains shown)
VH: QVQLVQSGAEVKKPGASVKVSCKASGYTFTSYWMHWVRQAPGQGLEWIGNINPSNGGTNYNEKFKSRATMTRDTSTSTAYMELSSLRSEDTAVYYCELWQGYWGQGTLVTVSS
VL: DIVMTQSPLSLPVTLGQPASISCRSSKSLLYKDGKTYLNWFQQRPGQSPQLLIYLMSTRASGVPDRFSGGGSGTDFTLKISRVEAEDVGVYYCQQLVEYPLTFGQGTKLEIKR
notes: Single point variant of H6FL with L13FL
GST-human NOGO-A56 [1]
  EC50 (read off the curve): ~0.1 µg/mL
GST-human NOGO-A56 [2]
  koff: 0.0198 s⁻¹

B2: 2A10 (murine monoclonal antibody) (antibody, V domains shown)
VH: QVQLQQPGTELVKPGASVKLSCKASGYTFTSYWMHWVKQRPGQGLEWIGNINPSNGGTNYNEKFKSKATLTVDKSSSTAYMQLSSLTSEDSAVYYCELGQGYWGQGTTLTVSS
VL: DIVITQDELSNPVTSGESVSISCRSSKSLLYKDGKTYLNWFLQRPGQSPQLLIYLMSTRASGVSDRFSGSGSGTDFTLEISRVKAEDVGVYYCQQLVEYPLTFGAGTKLELK
notes: Mouse monoclonal; also called parental antibody 2A10; murine donor antibody 2A10
[3]
  binding result: binds
[4]
  binding result: binds
